Results from US20250034275A1 (CHIA TAI TIANQING PHARMACEUTICAL GROUP, published 2025).
Numbering of substitutions follows the chain as printed.

T1: human Trop-2-His (human, UniProt P09758 27-274, limits assumed)
T1 construct: by analogy with the macaque construct it is probably the extracellular domain with a His tag; also called Trop-2-His protein
T1 sequence: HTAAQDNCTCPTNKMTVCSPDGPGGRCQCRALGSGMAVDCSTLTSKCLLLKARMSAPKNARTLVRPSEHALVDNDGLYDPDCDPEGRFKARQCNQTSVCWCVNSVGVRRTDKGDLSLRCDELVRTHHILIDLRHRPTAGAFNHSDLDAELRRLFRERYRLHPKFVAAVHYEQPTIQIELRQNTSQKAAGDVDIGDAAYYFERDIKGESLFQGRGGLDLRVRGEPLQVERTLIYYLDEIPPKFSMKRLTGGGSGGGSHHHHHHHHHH

T2: human Trop-2 (on the surface of human cell lines) (human, UniProt P09758 27-323)
T2 sequence: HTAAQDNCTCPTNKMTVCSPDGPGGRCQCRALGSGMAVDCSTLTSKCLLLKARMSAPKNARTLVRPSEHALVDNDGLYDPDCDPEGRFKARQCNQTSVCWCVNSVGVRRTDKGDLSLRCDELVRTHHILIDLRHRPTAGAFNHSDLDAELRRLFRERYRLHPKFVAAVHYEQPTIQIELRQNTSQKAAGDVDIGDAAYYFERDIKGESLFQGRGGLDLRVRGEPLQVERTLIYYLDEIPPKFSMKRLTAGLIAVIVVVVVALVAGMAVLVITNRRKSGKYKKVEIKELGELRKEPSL

T3: Macaque Trop-2-His (macaque, UniProt P09758 27-274 (human entry))
T3 construct: Extracellular domain of macaque Trop-2 recombinantly linked to His; also called monkey Trop-2-His protein; monkey Trop-2
T3 chain: T1 sequence with M36V, S67N, I204V

B1: hz-Ab2-1.1 (antibody, human IgG1, kappa, V domains shown)
VH: EVQLVESGGGLIQPGGSLRLSCAVSGFSLTYYGIDWVRQPPGKGLEWVSVIWGSGNTKYNSALKSRLTISRDNSKSTLYLQMNSLRAEDTAVYYCARFYEGFAYWGQGTLVTVSS
VL: DIQMTQSPSSLSASVGDRVTITCKASQDINSYLSWFQQKPGKAPKTLIYRANRLVEGVPSRFSGSGSGQDYTLTISSLQPEDFATYYCLQYDEFPLTFGQGTKVEIKR
notes: Humanized antibody
B2: hz-Ab2-1.3 (antibody, human IgG1, kappa, V domains shown)
VH: QVQLQESGPGLVKPSETLSLTCTVSGFSLTYYGIDWIRQPPGKGLEWIGVIWGSGNTKYNSALKSRVTISKDNSKSQFSLKLSSVTAADTAVYYCARFYEGFAYWGQGTLVTVSS
VL: B1 VL
notes: Humanized antibody
B3: hz-Ab2-2.1 (antibody, human IgG1, kappa, V domains shown)
VH: B1 VH
VL: B1 VL with K24R, Y71F, F94Y
notes: Humanized antibody
B4: hz-Ab2-1.4 (antibody, human IgG1, kappa, V domains shown)
VH: B2 VH with F78V, S79Y
VL: B1 VL
notes: Humanized antibody
B5: hz-Ab2-2.3 (antibody, human IgG1, kappa, V domains shown)
VH: B2 VH
VL: B1 VL with K24R, Y71F, F94Y
notes: Humanized antibody
B6: hz-Ab2-1.2 (antibody, human IgG1, kappa, V domains shown)
VH: B1 VH with G9P, S49G, S61Y, R71K
VL: B1 VL
notes: Humanized antibody
B7: hz-Ab2-2.2 (antibody, human IgG1, kappa, V domains shown)
VH: B1 VH with G9P, S49G, S61Y, R71K
VL: B1 VL with K24R, Y71F, F94Y
notes: Humanized antibody
B8: ch-Ab2 (antibody, human IgG1, kappa, V domains shown)
VH: EVQLVESGPGLVAPSQSLSITCTVSGFSLTYYGIDWVRQPPGKGLEWLGVIWGSGNTKYNSALMSRLSISKDNSKSQVFLRMNSLQSDDTAIYYCARFYEGFAYWGQGTLVTVSA
VL: AIVLTQSPSSMYASLGERVTITCKASQDINSYLSWFQQKPGKSPKTLIYRANRLVDGVPSRFSGSGSGQDYSLTISSLEYEDMGIYYCLQYDEFPLTFGVGTKLELKR
notes: also called chimeric antibody of Ab2

Each binder was assayed against T1, human Trop-2-His (assay: ELISA, plate-coated human Trop-2-His).
Experimental: (§1) After the liquid was discarded, 2% BSA (SIGMA, B2064-100G) diluted with PBS was added at 300 μL/well for blocking, and the mixture was incubated at 37° C. for 2 h. After the blocking was completed, the blocking buffer was discarded, the plate was washed 3 times with PBST buffer (pH 7.4 PBS containing 0.1% tween-20), the antibody solution diluted in a gradient was added at 100 μL/well, and the mixture was incubated at 37° C. for 1 h. After the incubation was completed, the plate was washed 3 times with PBST, the goat anti-human IgG (H+L) (JacksonImmunoResearch, 109-035-098, 1:5000 dilution) was added at 100 μL/well, and the mixture was incubated at 37° C. for 1 h. After the plate was washed 3 times with PBST, a TMB chromogenic substrate (TIANGEN, PA107-01) was added at 100 μL/well. The mixture was incubated at room temperature for 10-15 min, and then 1 M H₂SO₄ was added at 50 μL/well to terminate the reaction. The absorbance values at 450 nm were taken using a microplate reader. The binding curves of antibodies for antigen were fitted using software, and the EC₅₀ values were calculated.

Row | EC50 [pM] | Binder
1 | 82 | B1
2 | 81 | B2
3 | 1080 | B3
4 | 68 | B4
5 | 359 | B5
6 | 76 | B6
7 | 218 | B7
8 | 85 | B8

What follows are binders tested against T1, human Trop-2-His (assay: SPR (Biacore 8K), antibody captured, Trop-2-His as analyte).
Description: The affinity of antibodies for human Trop-2-His was detected in the form of antibody capturing. The antibody was affinity-captured by a CM5 (Cat. #29149603, GE) biosensor chip conjugated with an anti-human IgG antibody (from human antibody capture kit, Cat. #29234600, GE), then the antigen human Trop-2-His flowed on the surface of the chip, and a Biacore 8K instrument was used for detecting reaction signals in real time to obtain association and dissociation curves. After dissociation was completed for each assay cycle, the chip was washed clean and regenerated with a regeneration buffer, 3M MgCl₂ (from human antibody capture kit, Cat. #29234600, GE). The association and dissociation curves were collected by Biacore 8K Control Software 3.0 in real time, and the data were analyzed by Biacore Insight Evaluation Software 3.0. The data were fitted using a Langmuir 1:1 model after double subtraction (namely, in each cycle, the contrast channel signal was subtracted from the experimental channel signal, and the sample signal was subtracted from the blank signal), and the association rate constant Ka, the dissociation rate constant Kd, and the equilibrium constant KD were calculated.

Row | Kd [pM] | koff [s⁻¹] | kon [M⁻¹ s⁻¹] | Binder
9 | 47800 | 0.0029 | 60600 | B1
10 | 16500 | 0.0165 | 1e+06 | B2
11 | 686 | 0.00023 | 336000 | B3
12 | 2320 | 0.00284 | 1.22e+06 | B4
13 | 2720 | 0.000643 | 237000 | B5
14 | 1430 | 0.00508 | 3.56e+06 | B6
15 | 2410 | 0.00059 | 245000 | B7

The binders below were run against T2, human Trop-2 (on the surface of human …) (assay: cell-based or functional assay).

Row | ADCC reporter (Jurkat-CD16a v158-NFAT-luciferase), target cell H322, EC50 [pM] | ADCC reporter (Jurkat-CD16a v158-NFAT-luciferase), target cell HCC1806, EC50 [pM] | Binder
16 | 1450 | 4100 | B1
17 | 170 | 330 | B2
18 | 340 | 390 | B4
19 | 310 | 420 | B6
20 | 170 | 200 | B8

Each binder was assayed against T2, human Trop-2 (on the surface of human …) (assay: flow cytometry, HCC38 cells).
Experimental: (§2) Tumor cells expressing Trop-2 were prepared into a cell suspension (0.5-1×10⁶ cells/mL) using the FACS buffer (Miltenyi Biotec, 130-091-221), and the cell suspension was added to a 96-well V-bottom plate at 100 μL/well. After centrifugation and removal of the supernatant, the test antibodies diluted with the FACS buffer to different concentrations (0.006 nM-100 nM) were each added at 50 μL/well. The mixture was incubated in the dark in a 4° C. refrigerator for 1 h. The plate was then washed 3 times with the FACS buffer by centrifugation at 300 g, and Alexa Fluor 488 goat anti-human IgG (H+L) (Bio-legend, 409304, 1:500 dilution) at working concentration was added. The mixture was incubated in the dark in a 4° C. refrigerator for 40 min. The plate was then washed 3 times with the FACS buffer by centrifugation at 300 g, the geometric mean fluorescence intensity (MFI) was measured on a Sartorius iQue3 flow cytometer, and the binding EC₅₀ values of the antibodies for tumor cells with different Trop-2 expression levels were calculated

Row | EC50 [pM] | Binder
21 | 650 | B2
22 | 1200 | B4
23 | 760 | B6
24 | 590 | B8

These binders were tested against T2, human Trop-2 (on the surface of human …) (assay: flow cytometry, HCC1806 cells).
Experimental: as §2

Row | EC50 [pM] | Binder
25 | 1220 | B2
26 | 1070 | B4
27 | 900 | B6
28 | 780 | B8

Target: T2, human Trop-2 (on the surface of human …)
Experiment: cell-based or functional assay
Remark: another data set of the same source

Row | Binder | ADCC, PBMC killing (LDH), H322, EC50 [pM] | ADCC, PBMC killing (LDH), H322, Maximum killing (%) | ADCC, PBMC killing (LDH), HCC1806, EC50 [pM] | ADCC, PBMC killing (LDH), HCC1806, Maximum killing (%)
29 | B1 | 130 | 47.8 | 460 | 32.9
30 | B2 | 20 | 48.1 | 60 | 37
31 | B4 | 10 | 48.7 | 20 | 34.8
32 | B6 | 10 | 48.4 | 30 | 36.6
33 | B8 | 10 | 48.1 | 20 | 40

Target: T3, Macaque Trop-2-His
Experiment: ELISA, plate-coated macaque Trop-2-His
Experimental: as §1, with “times with the PBST buffer” for “times with PBST buffer”

Row | EC50 [pM] | Binder
34 | 133 | B1
35 | 68 | B2
36 | 1190 | B3
37 | 53 | B4
38 | 830 | B5
39 | 64 | B6
40 | 341 | B7
41 | 48 | B8
